Among the data in publication PMC7164768 are stoichiometry N (SecA per SecY complex) values, retold here.

For the test, the target named is Thermotoga maritima SecYEG complex, Se-Met derivatized (Thermotoga maritima) (UniProt Q9X1I9). Kind of test: crystal structure.
Sequence of Thermotoga maritima SecYEG complex, Se-Met derivatized (Thermotoga maritima) (Q9X1I9 whole entry, chain 1 of 3): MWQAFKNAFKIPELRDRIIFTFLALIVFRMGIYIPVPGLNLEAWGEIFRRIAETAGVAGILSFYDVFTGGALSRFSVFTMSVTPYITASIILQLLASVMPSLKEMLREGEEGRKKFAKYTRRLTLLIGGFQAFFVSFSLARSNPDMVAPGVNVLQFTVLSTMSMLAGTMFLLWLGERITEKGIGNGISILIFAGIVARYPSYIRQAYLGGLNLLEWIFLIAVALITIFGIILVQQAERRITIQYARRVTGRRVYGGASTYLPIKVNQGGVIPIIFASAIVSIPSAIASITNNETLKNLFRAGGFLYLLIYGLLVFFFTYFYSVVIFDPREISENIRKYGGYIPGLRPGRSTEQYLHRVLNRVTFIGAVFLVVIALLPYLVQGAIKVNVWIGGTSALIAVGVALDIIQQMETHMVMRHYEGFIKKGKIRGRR
Sequence of Thermotoga maritima SecYEG complex, Se-Met derivatized (Thermotoga maritima) (P35874 whole entry, chain 2 of 3, further chain): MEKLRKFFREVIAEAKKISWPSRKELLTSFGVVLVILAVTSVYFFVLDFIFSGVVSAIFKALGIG
Sequence of Thermotoga maritima SecYEG complex, Se-Met derivatized (Thermotoga maritima) (Q9WYU9 whole entry, chain 3 of 3, further chain): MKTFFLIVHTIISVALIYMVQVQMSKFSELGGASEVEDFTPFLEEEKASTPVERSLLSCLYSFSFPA

Turning to “Thermotoga maritima SecA (from UniProt Q9X1R4 1-871) (enzyme)”, the stoichiometry N (SecA per SecY complex) came out at 1.
